Results from US20140087995A1 (published 2014).
Blank lines part the entries; values can stand above or below the binder they belong to. Numbered stars: 1 amine (or outer) side, 2 acyl side, 3 side chain; on linkers, the order of the positions; unused ones are H or OH. Bridge positions count the residues as written; N and C are the ends. Side chains are listed from the residue outwards. Ends that are not written are not given here. * marks the point of attachment. C20 diacid = O=C(O)CCCCCCCCCCCCCCCCCCC(=O)*; γGlu = O=C(O)[C@H](CCC(=O)[*:2])N[*:1]; AEEA = NCCOCCOCC(=O)O

Key:
[1] = target: T1, rat amylin receptor (rat calcitonin receptor + rat RAMP 3) (rat, UniProt P32214 25-516; Q9JJ73 23-147); test: SPA competition vs 125I-rat amylin, membranes of BHK cells with rat calcitonin receptor + rat RAMP3 (Assay VI)
T1 construct: whole, on cells; Membranes prepared from transiently transfected BHK tk'ts 13 cells (Assay VI); also called rAmylin-R; rAmylin
T1 sequence (looked up) 1: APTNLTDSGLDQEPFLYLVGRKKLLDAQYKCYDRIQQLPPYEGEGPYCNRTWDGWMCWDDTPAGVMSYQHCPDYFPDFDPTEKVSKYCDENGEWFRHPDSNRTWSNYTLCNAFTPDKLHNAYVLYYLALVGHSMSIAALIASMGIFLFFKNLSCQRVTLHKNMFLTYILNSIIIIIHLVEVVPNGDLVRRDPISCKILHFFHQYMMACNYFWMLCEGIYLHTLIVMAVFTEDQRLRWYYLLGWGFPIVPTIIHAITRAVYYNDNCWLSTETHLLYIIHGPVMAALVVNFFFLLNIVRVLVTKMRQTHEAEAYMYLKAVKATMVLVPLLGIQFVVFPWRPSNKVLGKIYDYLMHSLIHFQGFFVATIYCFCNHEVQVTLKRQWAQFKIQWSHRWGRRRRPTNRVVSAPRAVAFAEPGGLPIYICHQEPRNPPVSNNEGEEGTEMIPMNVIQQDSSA
T1 sequence (looked up) 2: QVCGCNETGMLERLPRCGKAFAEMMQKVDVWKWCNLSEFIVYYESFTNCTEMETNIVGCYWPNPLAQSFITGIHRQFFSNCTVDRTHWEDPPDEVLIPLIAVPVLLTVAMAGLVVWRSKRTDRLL

[2] = target: T2, human calcitonin receptor (human, UniProt P30988 25-474); test: ratio of binding IC50s: human calcitonin receptor / human amylin receptor (reference)
T2 construct: whole, on cells; Membranes prepared from a stably transfected BHK cell line (Assay VII); also called hCTR; hCT
T2 sequence (looked up): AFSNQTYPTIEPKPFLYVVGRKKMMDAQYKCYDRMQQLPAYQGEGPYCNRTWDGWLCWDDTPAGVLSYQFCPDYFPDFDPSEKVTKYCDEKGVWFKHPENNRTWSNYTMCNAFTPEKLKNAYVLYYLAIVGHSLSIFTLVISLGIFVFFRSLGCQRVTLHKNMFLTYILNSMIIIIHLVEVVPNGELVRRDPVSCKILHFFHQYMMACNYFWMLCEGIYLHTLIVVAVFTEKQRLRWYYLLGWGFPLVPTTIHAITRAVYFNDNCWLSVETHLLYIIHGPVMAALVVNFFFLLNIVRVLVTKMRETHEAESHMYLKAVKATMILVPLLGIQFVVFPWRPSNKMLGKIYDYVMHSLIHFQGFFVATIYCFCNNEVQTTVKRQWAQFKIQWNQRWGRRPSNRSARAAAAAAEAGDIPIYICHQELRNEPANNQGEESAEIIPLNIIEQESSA
How it was run: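 IC₅₀ values were derived by one-site competition analysis of SPA counts. Cell membranes (35 ng/μL) with SPA beads were incubated with test compounds for 120 min at 25° C in Hepes buffer, pH 7.4, containing CaCl2, MgCl₂, OA and Tween20.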

rat calcitonin receptor [3] = target: T3, rat calcitonin receptor (rat, UniProt P32214 25-516); test: ratio of binding IC50s: rat calcitonin receptor / rat amylin receptor (reference)
T3 construct: whole, on cells; Membranes prepared from transiently transfected BHK tk'ts 13 cells (Assay VIII); also called rCTR; rCT
T3 sequence (looked up): T1 sequence (looked up) 1

rat calcitonin receptor [4] = target: T3, rat calcitonin receptor; test: SPA competition vs 125I-calcitonin, membranes of BHK cells with rat calcitonin receptor (Assay VIII)

B1: N^ε1-[2-[2-[2-[[(4S)-4-carboxy-4-(19-carboxynonadecanoylamino)butanoyl]amino]ethoxy]ethoxy]acetyl]-[His14,Arg17,Pro21,Pro27,His34]-h-amylin (peptide)
peptide: K([AEEA-γGlu-C20 diacid])CNTATCATQRLAHFLRHSSPNFGAIPSSTNVGHNTY-NH2
modifications: disulfide 2-7; N-terminus assumed
SMILES: CC[C@H](C)[C@H](NC(=O)[C@H](C)NC(=O)CNC(=O)[C@H](Cc1ccccc1)NC(=O)[C@H](CC(N)=O)NC(=O)[C@@H]1CCCN1C(=O)[C@H](CO)NC(=O)[C@H](CO)NC(=O)[C@H](Cc1c[nH]cn1)NC(=O)[C@H](CCCNC(=N)N)NC(=O)[C@H](CC(C)C)NC(=O)[C@H](Cc1ccccc1)NC(=O)[C@H](Cc1c[nH]cn1)NC(=O)[C@H](C)NC(=O)[C@H](CC(C)C)NC(=O)[C@H](CCCNC(=N)N)NC(=O)[C@H](CCC(N)=O)NC(=O)[C@@H](NC(=O)[C@H](C)NC(=O)[C@@H]1CSSC[C@H](NC(=O)[C@@H](N)CCCCNC(=O)COCCOCCNC(=O)CC[C@H](NC(=O)CCCCCCCCCCCCCCCCCCC(=O)O)C(=O)O)C(=O)N[C@@H](CC(N)=O)C(=O)N[C@@H]([C@@H](C)O)C(=O)N[C@@H](C)C(=O)N[C@@H]([C@@H](C)O)C(=O)N1)[C@@H](C)O)C(=O)N1CCC[C@H]1C(=O)N[C@@H](CO)C(=O)N[C@@H](CO)C(=O)N[C@H](C(=O)N[C@@H](CC(N)=O)C(=O)N[C@H](C(=O)NCC(=O)N[C@@H](Cc1c[nH]cn1)C(=O)N[C@@H](CC(N)=O)C(=O)N[C@H](C(=O)N[C@@H](Cc1ccc(O)cc1)C(N)=O)[C@@H](C)O)C(C)C)[C@@H](C)O
notes: Analogue of human amylin; also called compound 80
IC50 [1]: 1.67 nM
Ratio hCT/hAmylin binding [2]: 68.1
Ratio rCT/rAmylin binding (rat calcitonin receptor [3]): 36.2
IC50 (rat calcitonin receptor [4]): 60.4 nM

B2: N^ε1-[2-[2-[2-[[(4S)-4-carboxy-4-(19-carboxynonadecanoylamino)butanoyl]amino]ethoxy]ethoxy]acetyl]-[His14,Arg17,Pro21,Pro27,Pro31]-h-amylin (peptide)
peptide: K([AEEA-γGlu-C20 diacid])CNTATCATQRLAHFLRHSSPNFGAIPSSTPVGSNTY-NH2
modifications: disulfide 2-7; N-terminus assumed
SMILES: CC[C@H](C)[C@H](NC(=O)[C@H](C)NC(=O)CNC(=O)[C@H](Cc1ccccc1)NC(=O)[C@H](CC(N)=O)NC(=O)[C@@H]1CCCN1C(=O)[C@H](CO)NC(=O)[C@H](CO)NC(=O)[C@H](Cc1c[nH]cn1)NC(=O)[C@H](CCCNC(=N)N)NC(=O)[C@H](CC(C)C)NC(=O)[C@H](Cc1ccccc1)NC(=O)[C@H](Cc1c[nH]cn1)NC(=O)[C@H](C)NC(=O)[C@H](CC(C)C)NC(=O)[C@H](CCCNC(=N)N)NC(=O)[C@H](CCC(N)=O)NC(=O)[C@@H](NC(=O)[C@H](C)NC(=O)[C@@H]1CSSC[C@H](NC(=O)[C@@H](N)CCCCNC(=O)COCCOCCNC(=O)CC[C@H](NC(=O)CCCCCCCCCCCCCCCCCCC(=O)O)C(=O)O)C(=O)N[C@@H](CC(N)=O)C(=O)N[C@@H]([C@@H](C)O)C(=O)N[C@@H](C)C(=O)N[C@@H]([C@@H](C)O)C(=O)N1)[C@@H](C)O)C(=O)N1CCC[C@H]1C(=O)N[C@@H](CO)C(=O)N[C@@H](CO)C(=O)N[C@H](C(=O)N1CCC[C@H]1C(=O)N[C@H](C(=O)NCC(=O)N[C@@H](CO)C(=O)N[C@@H](CC(N)=O)C(=O)N[C@H](C(=O)N[C@@H](Cc1ccc(O)cc1)C(N)=O)[C@@H](C)O)C(C)C)[C@@H](C)O
notes: Analogue of human amylin; also called compound 61
IC50 [1]: 0.842 nM
Ratio hCT/hAmylin binding [2]: 66.7
Ratio rCT/rAmylin binding (rat calcitonin receptor [3]): 39.7
IC50 (rat calcitonin receptor [4]): 33.4 nM

B5: N^ε1-[2-[2-[2-[[(4S)-4-carboxy-4-(19-carboxynonadecanoylamino)butanoyl]amino]ethoxy]ethoxy]acetyl]-[His14,Arg17,Pro21,Pro27,Pro34]-h-amylin (peptide)
peptide: K([AEEA-γGlu-C20 diacid])CNTATCATQRLAHFLRHSSPNFGAIPSSTNVGPNTY-NH2
modifications: disulfide 2-7; N-terminus assumed
SMILES: CC[C@H](C)[C@H](NC(=O)[C@H](C)NC(=O)CNC(=O)[C@H](Cc1ccccc1)NC(=O)[C@H](CC(N)=O)NC(=O)[C@@H]1CCCN1C(=O)[C@H](CO)NC(=O)[C@H](CO)NC(=O)[C@H](Cc1c[nH]cn1)NC(=O)[C@H](CCCNC(=N)N)NC(=O)[C@H](CC(C)C)NC(=O)[C@H](Cc1ccccc1)NC(=O)[C@H](Cc1c[nH]cn1)NC(=O)[C@H](C)NC(=O)[C@H](CC(C)C)NC(=O)[C@H](CCCNC(=N)N)NC(=O)[C@H](CCC(N)=O)NC(=O)[C@@H](NC(=O)[C@H](C)NC(=O)[C@@H]1CSSC[C@H](NC(=O)[C@@H](N)CCCCNC(=O)COCCOCCNC(=O)CC[C@H](NC(=O)CCCCCCCCCCCCCCCCCCC(=O)O)C(=O)O)C(=O)N[C@@H](CC(N)=O)C(=O)N[C@@H]([C@@H](C)O)C(=O)N[C@@H](C)C(=O)N[C@@H]([C@@H](C)O)C(=O)N1)[C@@H](C)O)C(=O)N1CCC[C@H]1C(=O)N[C@@H](CO)C(=O)N[C@@H](CO)C(=O)N[C@H](C(=O)N[C@@H](CC(N)=O)C(=O)N[C@H](C(=O)NCC(=O)N1CCC[C@H]1C(=O)N[C@@H](CC(N)=O)C(=O)N[C@H](C(=O)N[C@@H](Cc1ccc(O)cc1)C(N)=O)[C@@H](C)O)C(C)C)[C@@H](C)O
notes: Analogue of human amylin; also called compound 68
IC50 [1]: 0.234 nM
Ratio hCT/hAmylin binding [2]: 64.4
Ratio rCT/rAmylin binding (rat calcitonin receptor [3]): 122
IC50 (rat calcitonin receptor [4]): 28.5 nM

Next, values leading:

IC50 [1]: 0.283 nM
Ratio hCT/hAmylin binding [2]: 51.7
Ratio rCT/rAmylin binding (rat calcitonin receptor [3]): 178
IC50 (rat calcitonin receptor [4]): 50.3 nM
B3: N^ε1-[2-[2-[2-[[(4S)-4-carboxy-4-(19-carboxynonadecanoylamino)butanoyl]amino]ethoxy]ethoxy]acetyl]-[Ser14,Arg17,Pro21,Pro27,Pro31]-h-amylin (peptide)
peptide: K([AEEA-γGlu-C20 diacid])CNTATCATQRLASFLRHSSPNFGAIPSSTPVGSNTY-NH2
modifications: disulfide 2-7; N-terminus assumed
SMILES: CC[C@H](C)[C@H](NC(=O)[C@H](C)NC(=O)CNC(=O)[C@H](Cc1ccccc1)NC(=O)[C@H](CC(N)=O)NC(=O)[C@@H]1CCCN1C(=O)[C@H](CO)NC(=O)[C@H](CO)NC(=O)[C@H](Cc1c[nH]cn1)NC(=O)[C@H](CCCNC(=N)N)NC(=O)[C@H](CC(C)C)NC(=O)[C@H](Cc1ccccc1)NC(=O)[C@H](CO)NC(=O)[C@H](C)NC(=O)[C@H](CC(C)C)NC(=O)[C@H](CCCNC(=N)N)NC(=O)[C@H](CCC(N)=O)NC(=O)[C@@H](NC(=O)[C@H](C)NC(=O)[C@@H]1CSSC[C@H](NC(=O)[C@@H](N)CCCCNC(=O)COCCOCCNC(=O)CC[C@H](NC(=O)CCCCCCCCCCCCCCCCCCC(=O)O)C(=O)O)C(=O)N[C@@H](CC(N)=O)C(=O)N[C@@H]([C@@H](C)O)C(=O)N[C@@H](C)C(=O)N[C@@H]([C@@H](C)O)C(=O)N1)[C@@H](C)O)C(=O)N1CCC[C@H]1C(=O)N[C@@H](CO)C(=O)N[C@@H](CO)C(=O)N[C@H](C(=O)N1CCC[C@H]1C(=O)N[C@H](C(=O)NCC(=O)N[C@@H](CO)C(=O)N[C@@H](CC(N)=O)C(=O)N[C@H](C(=O)N[C@@H](Cc1ccc(O)cc1)C(N)=O)[C@@H](C)O)C(C)C)[C@@H](C)O
notes: Analogue of human amylin; also called compound 73

IC50 [1]: 4.89 nM
Ratio hCT/hAmylin binding [2]: 101
Ratio rCT/rAmylin binding (rat calcitonin receptor [3]): 22.3
IC50 (rat calcitonin receptor [4]): 109 nM
B4: N^ε1-[2-[2-[2-[[(4S)-4-carboxy-4-(19-carboxynonadecanoylamino)butanoyl]amino]ethoxy]ethoxy]acetyl]-[Lys14,Arg17,Pro21,Pro27,Pro31]-h-amylin (peptide)
peptide: K([AEEA-γGlu-C20 diacid])CNTATCATQRLAKFLRHSSPNFGAIPSSTPVGSNTY-NH2
modifications: disulfide 2-7; N-terminus assumed
SMILES: CC[C@H](C)[C@H](NC(=O)[C@H](C)NC(=O)CNC(=O)[C@H](Cc1ccccc1)NC(=O)[C@H](CC(N)=O)NC(=O)[C@@H]1CCCN1C(=O)[C@H](CO)NC(=O)[C@H](CO)NC(=O)[C@H](Cc1c[nH]cn1)NC(=O)[C@H](CCCNC(=N)N)NC(=O)[C@H](CC(C)C)NC(=O)[C@H](Cc1ccccc1)NC(=O)[C@H](CCCCN)NC(=O)[C@H](C)NC(=O)[C@H](CC(C)C)NC(=O)[C@H](CCCNC(=N)N)NC(=O)[C@H](CCC(N)=O)NC(=O)[C@@H](NC(=O)[C@H](C)NC(=O)[C@@H]1CSSC[C@H](NC(=O)[C@@H](N)CCCCNC(=O)COCCOCCNC(=O)CC[C@H](NC(=O)CCCCCCCCCCCCCCCCCCC(=O)O)C(=O)O)C(=O)N[C@@H](CC(N)=O)C(=O)N[C@@H]([C@@H](C)O)C(=O)N[C@@H](C)C(=O)N[C@@H]([C@@H](C)O)C(=O)N1)[C@@H](C)O)C(=O)N1CCC[C@H]1C(=O)N[C@@H](CO)C(=O)N[C@@H](CO)C(=O)N[C@H](C(=O)N1CCC[C@H]1C(=O)N[C@H](C(=O)NCC(=O)N[C@@H](CO)C(=O)N[C@@H](CC(N)=O)C(=O)N[C@H](C(=O)N[C@@H](Cc1ccc(O)cc1)C(N)=O)[C@@H](C)O)C(C)C)[C@@H](C)O
notes: Analogue of human amylin; also called compound 74
